Source: article PMC4769699 (Environmental microbiology reports, 2015)

Molecular target: the molecule itself
Experiment: native MS

B1: AmrZ1-66 (AmrZ without the C-terminal domain) (domain or fragment)
chain: MRPLKQATPTYSSRTADKFVVRLPEGMREQIAEVARSHHRSMNSEIIARLEQSLLQEGALQDNLGV
With B1 the “stoichiometry N” value was 2.
